Measurements as given in US20220062373A1 (published 2022).

Biological target: T1, Recombinant human CD206 (MRC1/CD206) (human, UniProt P22897 19-1383)
T1 chain: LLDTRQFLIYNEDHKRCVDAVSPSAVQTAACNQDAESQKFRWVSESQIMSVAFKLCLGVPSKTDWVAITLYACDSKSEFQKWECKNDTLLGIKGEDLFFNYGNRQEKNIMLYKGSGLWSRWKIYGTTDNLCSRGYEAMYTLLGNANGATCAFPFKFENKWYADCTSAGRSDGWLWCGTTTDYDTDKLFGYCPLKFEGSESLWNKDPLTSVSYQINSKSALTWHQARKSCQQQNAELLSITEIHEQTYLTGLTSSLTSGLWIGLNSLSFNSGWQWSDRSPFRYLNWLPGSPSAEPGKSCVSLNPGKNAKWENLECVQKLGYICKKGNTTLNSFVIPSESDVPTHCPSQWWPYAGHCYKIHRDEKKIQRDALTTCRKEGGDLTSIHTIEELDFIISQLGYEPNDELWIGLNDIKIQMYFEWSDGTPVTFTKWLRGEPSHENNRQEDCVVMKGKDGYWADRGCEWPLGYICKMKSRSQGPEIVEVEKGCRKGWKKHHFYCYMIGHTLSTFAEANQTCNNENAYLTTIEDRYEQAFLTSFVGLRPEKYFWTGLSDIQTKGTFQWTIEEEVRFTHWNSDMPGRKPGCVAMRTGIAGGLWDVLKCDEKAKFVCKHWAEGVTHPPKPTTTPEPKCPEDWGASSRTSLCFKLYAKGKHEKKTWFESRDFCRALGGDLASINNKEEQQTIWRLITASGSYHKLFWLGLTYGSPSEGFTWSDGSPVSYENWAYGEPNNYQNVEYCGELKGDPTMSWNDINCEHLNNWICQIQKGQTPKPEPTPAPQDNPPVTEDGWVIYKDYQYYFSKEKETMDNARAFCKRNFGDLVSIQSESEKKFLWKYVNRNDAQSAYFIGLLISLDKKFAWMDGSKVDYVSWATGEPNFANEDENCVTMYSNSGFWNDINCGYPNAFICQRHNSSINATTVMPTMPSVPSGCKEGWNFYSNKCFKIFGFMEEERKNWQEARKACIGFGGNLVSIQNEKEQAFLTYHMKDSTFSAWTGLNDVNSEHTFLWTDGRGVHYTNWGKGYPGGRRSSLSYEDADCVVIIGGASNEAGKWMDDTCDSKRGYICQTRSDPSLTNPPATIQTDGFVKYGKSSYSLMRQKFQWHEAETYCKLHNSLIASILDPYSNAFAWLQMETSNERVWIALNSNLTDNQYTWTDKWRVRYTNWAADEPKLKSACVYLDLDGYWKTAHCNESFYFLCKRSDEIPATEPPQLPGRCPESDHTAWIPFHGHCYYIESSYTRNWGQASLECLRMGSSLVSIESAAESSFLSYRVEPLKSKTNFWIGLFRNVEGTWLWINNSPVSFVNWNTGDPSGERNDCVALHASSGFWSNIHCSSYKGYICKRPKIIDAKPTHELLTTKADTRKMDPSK
Assay: MST

- Kd: 8.37 µM
Binder: KFRKAFKRFF [RP-182]
